In paper PMC4604684, “Characterisation of the Cullin-3 mutation that causes a severe form of familial hypertension and hyperkalaemia” (EMBO Molecular Medicine, 2015):

Target: T1, CUL3^WT-RBX1 complex, purified, tag cleaved (human, UniProt Q13618-1 1-768; P62877 1-108)
T1 construct: Cullin-3, human, wild type; RBX1, human, untagged; The pull-down sections call this protein only CUL3^WT; also called CUL3-RBX1; not shown: DAC, N-terminal, cleaved
Test: pull-down; purified GST-CAND1 or GST on glutathione-sepharose; incubated with purified CUL3^WT or CUL3^Δ403–459 at 4°C for 1 h; washed thrice; SDS-PAGE, Coomassie
Settings: both partners purified

T1 sequence (Q13618 whole entry, chain 1 of 2): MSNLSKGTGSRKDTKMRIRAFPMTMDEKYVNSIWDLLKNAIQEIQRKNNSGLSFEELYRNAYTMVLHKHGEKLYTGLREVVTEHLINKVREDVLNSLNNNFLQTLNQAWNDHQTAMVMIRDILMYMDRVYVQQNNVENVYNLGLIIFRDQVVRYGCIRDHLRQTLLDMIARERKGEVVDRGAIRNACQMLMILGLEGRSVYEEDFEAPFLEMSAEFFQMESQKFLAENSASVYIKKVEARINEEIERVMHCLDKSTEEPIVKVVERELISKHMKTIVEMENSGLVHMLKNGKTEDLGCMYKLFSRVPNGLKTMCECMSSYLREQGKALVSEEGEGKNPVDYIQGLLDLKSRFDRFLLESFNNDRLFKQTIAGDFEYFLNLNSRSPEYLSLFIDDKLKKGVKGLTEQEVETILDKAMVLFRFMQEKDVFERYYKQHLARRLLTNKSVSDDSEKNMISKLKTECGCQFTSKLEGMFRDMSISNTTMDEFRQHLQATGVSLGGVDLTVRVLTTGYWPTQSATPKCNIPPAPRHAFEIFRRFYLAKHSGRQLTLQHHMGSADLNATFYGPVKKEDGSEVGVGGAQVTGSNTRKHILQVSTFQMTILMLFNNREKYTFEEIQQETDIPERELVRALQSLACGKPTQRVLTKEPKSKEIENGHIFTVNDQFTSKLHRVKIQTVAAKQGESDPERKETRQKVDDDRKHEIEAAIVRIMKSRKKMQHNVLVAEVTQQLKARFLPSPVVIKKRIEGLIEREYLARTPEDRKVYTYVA
T1 sequence (P62877 whole entry, chain 2 of 2): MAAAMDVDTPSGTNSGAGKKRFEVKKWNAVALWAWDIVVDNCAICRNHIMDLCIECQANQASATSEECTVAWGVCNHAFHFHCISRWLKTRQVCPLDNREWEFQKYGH

binding result: binds
B1: GST-CAND1 (natural protein, human, UniProt Q86VP6-1 1-1230, looked up)
chain: MASASYHISNLLEKMTSSDKDFRFMATNDLMTELQKDSIKLDDDSERKVVKMILKLLEDKNGEVQNLAVKCLGPLVSKVKEYQVETIVDTLCTNMLSDKEQLRDISSIGLKTVIGELPPASSGSALAANVCKKITGRLTSAIAKQEDVSVQLEALDIMADMLSRQGGLLVNFHPSILTCLLPQLTSPRLAVRKRTIIALGHLVMSCGNIVFVDLIEHLLSELSKNDSMSTTRTYIQCIAAISRQAGHRIGEYLEKIIPLVVKFCNVDDDELREYCIQAFESFVRRCPKEVYPHVSTIINICLKYLTYDPNYNYDDEDEDENAMDADGGDDDDQGSDDEYSDDDDMSWKVRRAAAKCLDAVVSTRHEMLPEFYKTVSPALISRFKEREENVKADVFHAYLSLLKQTRPVQSWLCDPDAMEQGETPLTMLQSQVPNIVKALHKQMKEKSVKTRQCCFNMLTELVNVLPGALTQHIPVLVPGIIFSLNDKSSSSNLKIDALSCLYVILCNHSPQVFHPHVQALVPPVVACVGDPFYKITSEALLVTQQLVKVIRPLDQPSSFDATPYIKDLFTCTIKRLKAADIDQEVKERAISCMGQIICNLGDNLGSDLPNTLQIFLERLKNEITRLTTVKALTLIAGSPLKIDLRPVLGEGVPILASFLRKNQRALKLGTLSALDILIKNYSDSLTAAMIDAVLDELPPLISESDMHVSQMAISFLTTLAKVYPSSLSKISGSILNELIGLVRSPLLQGGALSAMLDFFQALVVTGTNNLGYMDLLRMLTGPVYSQSTALTHKQSYYSIAKCVAALTRACPKEGPAVVGQFIQDVKNSRSTDSIRLLALLSLGEVGHHIDLSGQLELKSVILEAFSSPSEEVKSAASYALGSISVGNLPEYLPFVLQEITSQPKRQYLLLHSLKEIISSASVVGLKPYVENIWALLLKHCECAEEGTRNVVAECLGKLTLIDPETLLPRLKGYLISGSSYARSSVVTAVKFTISDHPQPIDPLLKNCIGDFLKTLEDPDLNVRRVALVTFNSAAHNKPSLIRDLLDTVLPHLYNETKVRKELIREVEMGPFKHTVDDGLDIRKAAFECMYTLLDSCLDRLDIFEFLNHVEDGLKDHYDIKMLTFLMLVRLSTLCPSAVLQRLDRLVEPLRATCTTKVKANSVKQEFEKQDELKRSAMRAVAALLTIPEAEKSPLMSEFQSQISSNPELAAIFESIQKDSSSTNLESMDTS
notes: CAND1, human, ORF amplified from an EST IMAGE clone and subcloned into pGEX6P-2; source: E. coli BL21, purified (glutathione resin, eluted with glutathione, dialysed); not shown: GST, N-terminal, kept
